In publication PMC5789003, “Structural and functional characterization of shaft, anchor, and tip proteins of the Mfa1 fimbria from the periodontal pathogen Porphyromonas gingivalis” (Scientific Reports, 2018):
Where “and” joins values, the source holds several entries; their conditions need not be identical. Equal values may be shown once.

Molecular target: the molecule itself
Assay: SDS-PAGE and immunoblot of partially heat-denatured fimbriae (ladder-like pattern)

B1: Mfa2 (anchor protein of the Mfa1 fimbria), wild type, in P. gingivalis (natural protein)
chain: CDKMIYDNYDDCPRGVYVNFYSQTECAENPSYPAEVARLNVYAFDKDGILRSANVFEDVQLSAAKEWLIPLEKDGLYTIFAWGNIDDHYNIGEIKIGETTKQQVLMRLKQDGKWATNIDGTTLWYATSPVVELKNMEDGADQYIHTRANLREYTNRVTVSVDSLPHPENYEIKLASSNGSYRFDGTVAKADSTYYPGETKVVGDSTCRAFFTTLKLESGHENTLSVTHKPTGREIFRTDLVGAILSSQYAQNINLRCINDFDIRLVAHHCNCPDDTYVVVQIWINGWLIHSYEIEL
modifications: lipidated cysteine (Cys29); disulphide bonds Cys54-Cys285 and Cys298-Cys300
stoichiometry N: 2 and 3

B2: Mfa2 C54A (natural protein)
chain: CDKMIYDNYDDCPRGVYVNFYSQTEAAENPSYPAEVARLNVYAFDKDGILRSANVFEDVQLSAAKEWLIPLEKDGLYTIFAWGNIDDHYNIGEIKIGETTKQQVLMRLKQDGKWATNIDGTTLWYATSPVVELKNMEDGADQYIHTRANLREYTNRVTVSVDSLPHPENYEIKLASSNGSYRFDGTVAKADSTYYPGETKVVGDSTCRAFFTTLKLESGHENTLSVTHKPTGREIFRTDLVGAILSSQYAQNINLRCINDFDIRLVAHHCNCPDDTYVVVQIWINGWLIHSYEIEL
notes: source: P. gingivalis Δmfa2Δfim complemented with mfa2C54A, whole cell lysate
stoichiometry N: 2 and 3

B3: Mfa2 C285A (natural protein)
chain: CDKMIYDNYDDCPRGVYVNFYSQTECAENPSYPAEVARLNVYAFDKDGILRSANVFEDVQLSAAKEWLIPLEKDGLYTIFAWGNIDDHYNIGEIKIGETTKQQVLMRLKQDGKWATNIDGTTLWYATSPVVELKNMEDGADQYIHTRANLREYTNRVTVSVDSLPHPENYEIKLASSNGSYRFDGTVAKADSTYYPGETKVVGDSTCRAFFTTLKLESGHENTLSVTHKPTGREIFRTDLVGAILSSQYAQNINLRAINDFDIRLVAHHCNCPDDTYVVVQIWINGWLIHSYEIEL
notes: source: P. gingivalis Δmfa2Δfim complemented with mfa2C285A, whole cell lysate
stoichiometry N: 3 and 2
